{
  "source": "paper PMC7736808",
  "test_in_all_cases": "MST",
  "conditions_in_all_cases": "5-bromo-dC at every C, MST at 22 C, 5 nM labeled DNA, 0.5 mg/ml BSA, 0.05% Tween 20, 5 mM HEPES pH 7.5, 20 mM NaCl (Table 2), 20 mM HEPES pH 8.0, 100 mM NaCl (Table 4)",
  "key": {"hZαADAR1 (human) [1]": {"target": "T1, hZαADAR1 (human) (UniProt P55265)", "T1 sequence": "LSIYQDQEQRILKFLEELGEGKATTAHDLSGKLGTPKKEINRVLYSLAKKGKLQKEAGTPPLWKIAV"}, "vvZαE3L": {"target": "vvZαE3L (UniProt P21605)"}, "[2]": {"target": "T2, GH5*:α3NADAR1-PW K41G;S42G;R43G;K53A;R95A;del65;D66K;L67K;Q68E;K70N;L71R;S72V;I73L;R74Y;R75S;S91P;F94W (/ human ADAR1 α3N and β-wing residues) (UniProt P02259)", "T2 sequence": "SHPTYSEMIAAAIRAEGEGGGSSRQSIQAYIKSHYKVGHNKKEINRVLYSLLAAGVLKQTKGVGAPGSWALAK"}, "hZαADAR1 (human) [3]": {"target": "T1, hZαADAR1 (human)", "remark": "listed apart in the source"}},
  "data": [
    {"sequence": "TCGCGCGCGCGCGCGCGCGCGCGCGCGCGCG (double strand) [Z-DNA, [d(5'-Cy5-T(Br5CG)15)]2]", "values": [
      {"measurement": "Kd", "setting": "hZαADAR1 (human) [1]", "result": 18, "unit": "nM"},
      {"measurement": "Kd", "setting": "vvZαE3L", "result": 2000, "unit": "nM"},
      {"measurement": "Kd", "setting": "[2]", "result": 1800, "unit": "nM"},
      {"measurement": "Kd", "setting": "hZαADAR1 (human) [3]", "result": 600, "unit": "nM"}
    ]}
  ]
}
